Measured values published in PMC9569824.

Biological target: bovine pancreatic ribonuclease A (bovine) (UniProt P61823)
Assay: SEC; size of the SA-2 peak from stored N-swapped oligomers, estimated from its elution volume against the calibration curves of the Superdex columns; estimate only

bovine pancreatic ribonuclease A (from UniProt P61823 27-150) (enzyme)
stoichiometry N (RNase A units): 180
